# Test results taken from patent US20160053277A1, “Compositions Having Dicamba Decarboxylase Activity and Methods of Use” (PIONEER HI-BRED INTERNATIONAL, INC., priority 2013, published 2016).
# Columns and labels:
# [1] = 14C assay with IPTG-induced recombinant E. coli cells: 14CO2 captured from [14C]-carboxyl-labeled dicamba; details: for Enzymatic Detection level: dicamba decarboxylation activity of the protein of the given SEQ ID NO, High / Low / No; for Dicamba Decarboxylase Activity: induced recombinant E. coli cells, [14C]-carboxyl-labeled dicamba, 14CO2 capture
# [2] = Saturation mutagenesis of SEQ ID NO:109: dicamba decarboxylation activity of point mutants (carbon dioxide released); details: decarboxylation activity (carbon dioxide released) of point mutant compared with unmutated backbone protein; backbone SEQ ID NO: 109
Molecule,Enzymatic Detection level [1],Dicamba Decarboxylase Activity [1],Fold Activity [2]
"61 (protein, listed as Gordonia amarae) MATGAGSGVPSPADRVIVRSPGVIDVHAHAVLPMSLGCAGAAGPEIGYREDGSPFFRVGEYVLNGVRYEGSAFMDPEVRVAAMDAAGIGLQMISPNPITYFTRLDARSATDYARAHNDAIAEAAGRHPGRLVGAAQLPMQDVPAAIAELERSVRELGLVAAYIDTDIGDRTLDAPELDDFYSAAVELDVPVFIHPSPVGQEGPPDDTRLRRFDLDLLLGFSYDETLAVAALVFGGVLERHPALDVCLSHGGGTLAFVAGRFARAVAKPRAWVPEFLVENGIESYLRRLWLDTHVHSAGSLRLLIDTVGTDRLVFGTNFAGWDADGATEVDALGDLRETTTANAAHLLRLGRA",No,No,2.4
"45 (protein, Mycobacterium sp) MANDDLAEVIAAHPDRFAGFAALPMRDPQAAAVELQRAVGTHGFCGAMINGLIEGRFLDDPAFAPLLSTAADLGVPLYLHPSFPPPQVAEIYFGGLAPVLGDLLATAGWGWHAETALHVLRLVATGVFDRLPELWVIVGHMGEMIPFALARIDTVLSPVAQLRQPVAQYFQTNVWFTTSGYTTFPPLQCALSTVGIDRLIFSVDYPYTDNTSARALLDTAPISPVDREKLAHGTVEALLRV",No,No,1.7
"29 (protein, listed as Pseudovibrio sp.) MAGRRDFLRKSVAAGVGLTAAAQLSAGGAQATVPDTSNIPLITLEEHFTTPELQSKNTSGDKRLFSGGGSRPELLDVGAGRIADMDEAGIDIQVLSTVTPGASKITGAEGVEFTRKFNTWIAEEVIAAYPNRFRAFATLPLSSPEAAADELERSVREYGFVGTMTYGPIDGKFLDHADYAPLLARAEALGVPIYIHPNWPSPTAMQAYYDGLGDDLTSRILSGPGYGWHQEIAVQCLRLIVGGVFDRFPNLQIVVGHMGEGLPFYYWRVGEDLDRIAQKRLQKPVQQYFHDNLWITTSAFFRDELLNLALATMGEDRVMFSVDYPMASAKVGADWLRAADIPLATKEKIGSKNAMKLLGIDKI",No,No,1.5
"38 (protein, listed as Variovorax paradoxus) MAQGKIGLEEHFAIPQTLQDSAGFVPGVYWKELSSRLLDIHDGRLRQMDEHGMEMMILSLNAPAVQAVADPVKAYELAVRANDFLAEQVAKRPDRFQAFAALPMQDPEKATQELERCMSVLGFRGALVNGFSQVGTPDNVAYYDAPQYAPFWAAAERLDAPFYLHPRNPIASWAQIYEGHPWLLGPTWAFAQETAVHALRLMASGLFDRHPGLKIILGHLGEGLPYNMWRVDHRNAWVKAPKGYPAKRKLCEYFQENFYLTTSGNFRTQTLIDAMLEVGSDRILFSTDWPFENIDHASNWFNDTSISEADRKKIGRTNAMSLFKLA",Low,Low,1.8
"37 (protein, listed as Burkholderia gladioli) MATFSNVKKIALEEHFAIAETIEDSAGFVPPDDWVELRGRLLDIQERRLAEMDRAGIELMVLSLNAPAVQAIRDPRQAVELARRANDYLAEQVARRPDRFRAFAALPMQAPEQAIREAERCVRELGFVGALVNGFSEAEDGAELYYDLPRYRPFWAALEALEVPFYLHPRNPLAGRAPIYDGHSWLMGPTWAFGQETAVHALRLMGSGLFDAHPRLQIILGHMGEGLPYSMWRVDNRNAWVSAKPNYPAEKPIAEYFRNNFWLTTSGNFRTQTLIDAMLEIGSDRILFSADWPFENMDHAADWFDHASISENDRIKIGRGNAERLLKLGR",Low,Low,1.6
"39 (protein, listed as Agrobacterium fabrum) MAQGKVALEEHFAIPETLQDSAGFVPGDCWTELQHRLLDIQDTRLKLMDAHGIETMILSLNAPAVQAIPDKTKAIEIARRANDALAEECAKRPDRFLAFAALPLQDPDAATQELRRCVNDLGFVGALVNGFSQEGDGQTPLYYDLPQYRPFWGEVEKLDVPFYLHPRNPLPQDSRIYDGHPWLLGPTWAFAQETAVHALRLMASGLFDEHPRLDIILGHMGEGLPYMMWRIDHRNAWVKLPPRYPAKRRFVDYFNENFHITTSGNFRTQTLIDAILEIGADRILFSTDWPFENIDHASDWFHATSIAEADRVKIGRTNARRLFKLDGR",No,No,1.6
"42 (protein, Agrobacterium radiobacter) MAQGKIALEEHFAIPDTLQDSAGFVPGDYWKELSARLLDIHEQRLMQMDAYGIEKMILSLNAPAVQAIPDKAKALEISRRANDFLAEQCARNPDRFLGFAALPLQDPDAATAELQRCVKTLGFVGALVNGFSQEGDGVTPLYYDLPQYRGFWAEVEKLAVPFYLHPRNPLPQDSRIYAGHPWLMGPTWAFAQETAVHALRLVGSGLFDDHPALRIILGHMGEGLPYMMWRIDNRNAWVKVAPNYPAKRRIADYFNENFYITTSGNFRTQSLVDAMLEIGADRILFSTDWPFENIDHASDWFDTATISEADRLKIGRTNAATLFNLES",Low,Low,1.7
"60 (protein, listed as Catenulispora acidiphila) MARGFVRTAVVPGFWDAGWRGAGQPGGMRVDVHAHLFPAAYLDLLDDFRQDGGVGTREVRALGGGDGERELRLRLAAMDAVGVDVQLLSTCPQGPYTGDPTAAVEAARCANVALAQTVAQYPERLRALAALPLPHILASVDELNRAMEQDGMLGAAVGTSILGRPLSHPDFEPLFAALNRRKGVLFVHPIGESAGSPLMQASKLDRVIGYAAEVSTAILQLFQAGLTVKYPDIRIIAPHMGGYLPFLIQRLDRHRDWYLPKDAPSAGQLMRGIAYDTANPLPAALRLTAEVVGPERLLLGTDYPFEQGPSLRDHIEYILAAGLPEAQAKMIVDVNAADFLDMRSGAEQPPV",No,No,1.6
"40 (protein, listed as Rhodococcus jostii) MAQGKIALEEHFAIPETLNDSAGFVPGTYWDELQARLLDIQDVRLKLMDEHNIETMILSLNAPAVQAIPERERAIDIARRANDVLAEECAKRPDRFRGFAALPLQDPDAAAEELRRCVTELGFVGALVNGFSQSATVDGGSTPLYYDLPRYRPFWAEVERLDVPFYLHPRNPLNQDARIYEGHPWLLGPTWAFAQETAVHALRLMASGLFDEHPGLRIVLGHMGEGIPAMLWRIDHRNAWVDVPPAYPAKRRMVDYFTENFFVTTSGNFRTQTLIDLLLELGSERVMFSTDWPFENINHAAEWFDAASISEADRLKIGRTNAATLFKLDR",Low,Low,1.4
"64 (protein, listed as Achromobacter piechaudii) MAIQKIDMHAHFFPPITRQEAAALDPVNAPWLRPDADGATGQIMAGEREFRPVDATLWDPALRIEQMDRHGVDVQILCATPIMFGYTYPARPAADWAARMNDLALEHCAYAPSRLKALAQVPLQDLELACQEASRARAAGHLGVQIGNHVGPRDLDDETLVQFLIHCANNDIPVLVHPWDMMTDGRMKKWMLPWLVSMPAETQLGILSLILSGAFERIPRSLKLCFAHGGGSFAYLLGRVDNAWRHRDIIRQDCPQLPSSYTDRFYTDSAVFDPRSLRLLIDVMGEDRVLLGSDYPYPLGEQEVGRLVAHAELVPEVQQKILFRNTMTFFGLQPGLQPGLQS",Low,Low,1.8
"62 (protein, Bacillus thuringiensis serovar pulsiensis) MAVGGKNFRDVTDQVWCPKKRIEDMDREGVDIQVLSPIPVTFSYWAKPEEAESMARIQNDFIAETVLAYPDRFVGLGTVPMQDGETAIREMERCITELNLHGIEIGTNVNGKNLDDPSFIEFFRMAEKWQVPIFIHPWETLGRDRMPHHNFMYTVGMPSETALAAATLIWSGIMEKFPRLKVCFAHGGGSFPYILPRLDQGWKVWPHLRLTTHPPSYYAKKFYFDSLNYDPINLKYMIERFGHEKIFMGSDYPFLLREVDPGKVIDETASLSEEQKAAMLGGNAAEFLNIDIKKRGVAYAESTNT",No,No,1
"3 (protein, listed as Lactobacillus plantarum) MAKLITVEEHFESAAVTAAMRQAVGNAVLPAVSPALRQYMRDNLPSPAIMQDTQHERLAFMAQYGIDMQVLSYGNSSPQNLSPEQAVPLSQLANDELAKAVVAHPDRYAGLAVLPVGDPQAAVAELNRAVTTLGLRGVLLKGNYQNKFFDEPFFLPIFEAAAALDVPVYFHPSFIPQAVTSHYFESNQWSDVVTGILSSAGYGWHMDVGIQVIRMIASGIFDKLPGLKLISGHWGELVPLFLERLDDELTTYTDLQYPFSTYYRHNVYVTPSGILSAPQLQFMLAEMGADHLMYSIDYPYKQPETSGSFLDIADLTDEQRAQIAFGTATTLFKL",Low,Low,0.9
"59 (protein, alpha proteobacterium) MAPSVIDAHAHFLPGSLVTALRSRSDAPDIRTDSNGGESFGIYRTRMPYGRTYDALDVRLARMDELGVDRQILSLPGLFGIDSRPVSQALPLVRAFNDGVADLVRKHPDRFSGIAALPLADLDAAQEEYRRARGDLGLSGLILPGDTFVSVAAAERVRPLFELAATIGGLIFVHPGPLPDETGSAVDAPAPHTDSVVHRRVTVDIQNRMTEVMVTLALTDFLAPYPSVPVQVANLGGSLPFVIERMDHVYALRNPEAPPPSLSLRSLYVDAASLGPRAIALAAEVYGADRVLFGSDYPIFDDGRCLDAVRQTRLSPDARALIAGGNAARMLTQT",No,No,0.9
